Results reported in patent publication US11034762 (CENTIVAX, dated 2021).

T1: MERS Receptor Binding Domain (RBD) protein (MERS virus, UniProt K9N5Q8 367-606)
T1 construct: also called Middle East Respiratory Syndrome (MERS) virus
T1 sequence: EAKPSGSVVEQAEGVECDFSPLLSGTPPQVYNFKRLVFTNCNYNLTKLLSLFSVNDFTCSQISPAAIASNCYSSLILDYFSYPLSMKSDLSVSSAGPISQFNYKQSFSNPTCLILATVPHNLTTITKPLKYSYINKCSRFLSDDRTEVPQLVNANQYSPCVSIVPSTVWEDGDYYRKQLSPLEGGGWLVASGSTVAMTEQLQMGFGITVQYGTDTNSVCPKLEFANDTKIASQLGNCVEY


How the values were obtained:
[1] = molecular target: SARS-CoV-2 Receptor Binding Domain (RBD) protein (SARS-CoV-2, UniProt P0DTC2 319-541)
[2] = molecular target: T1, MERS Receptor Binding Domain (RBD) …; assay: SPR; clone listed as COV2 only at the 21st table, row 11, column 3
[3] = molecular target: T2, SARS-CoV-1 Receptor Binding Domain (RBD) protein (SARS-CoV-1, UniProt P59594 306-527); assay: as above
T2 construct: also called SARS1

[4] = molecular target: T1, MERS Receptor Binding Domain (RBD) …; assay: SPR; clone listed as COV2 only at the 21st table, row 56, column 3
[5] = molecular target: T2, SARS-CoV-1 Receptor Binding Domain …; assay: as above
[6] = molecular target: T1, MERS Receptor Binding Domain (RBD) …; assay: SPR; clone listed as COV2 only at the 21st table, row 53, column 3
[7] = molecular target: T2, SARS-CoV-1 Receptor Binding Domain …; assay: as above
[8] = molecular target: T1, MERS Receptor Binding Domain (RBD) …; assay: SPR; clone listed as COV2 only at the 21st table, row 55, column 3
[9] = molecular target: T2, SARS-CoV-1 Receptor Binding Domain …; assay: as above

| Binder | Kd [1] [nM] | koff [1] [s⁻¹] | kon [1] [M⁻¹ s⁻¹] | other results |
| --- | --- | --- | --- | --- |
| COVID19_P21_A05 (scFv, V domains shown) VH: QVQLVQSGAEVKKPGSSVKVSCKASGGGFITYWIGWVRQAPGQGLEWMGIIYPGDGETRYSQKFQGRVTITADESTSTAYMELSSLRSEDTAVYYCAGGSGISTPMDVWGQGTLVTVSS VL: not shown | 41.2 | 0.0173 | 419000 | – |
| COVID19_P09_C08 (scFv, V domains shown) VH: QVQLVQSGAEVKKPGSSVKVSCKASGYGFITYWIGWVRQAPGQGLEWMGIIYPGDSETRYAQKFQGRVTITADESTSTAYMELSSLRSEDTAVYYCAGGSGISTPMDVWGQGTLVTVSS VL: not shown | 28.7 | 0.0131 | 458000 | – |
| COVID19_P09_G04 (scFv, V domains shown) VH: QVQLVQSGAEVKKPGSSVKVSCKASGYGFITYWIGWVRQAPGQGLEWMGIIYPGDSETNYSQKFQGRVTITADESTSTAYMELSSLRSEDTAVYYCAGGSGLFTPMDVWGQGTLVTVSS VL: not shown | 6.18 | 0.00381 | 616000 | – |
| COVID19_P10_B04 (scFv, V domains shown) VH: QVQLVQSGAEVKKPGSSVKVSCKASGYGFISYWIGWVRQAPGQGLEWMGIIYPGDGETRYSQKFQGRVTITADESTSTAYMELSSLRSEDTAVYYCAGSDGISTPMDVWGQGTLVTVSS VL: not shown | 36.2 | 0.0223 | 614000 | – |
| COVID19_P21_A10 (scFv, V domains shown) VH: QVQLVQSGAEVKKPGSSVKVSCKASGYGFITYWIGWVRQAPGQGLEWMGIIYPGDGEARYSQKFQGRVTITADESTSTAYMELSSLRSEDTAVYYCAGGSGISTPMDVWGQGTLVTVSS VL: not shown | 46.2 | 0.00729 | 158000 | – |
| COVID19_P21_B11 (scFv, V domains shown) VH: QVQLVQSGAEVKKPGSSVKVSCKASGYGFITYWIGWVRQAPGQGLEWMGIIYPGDSETRYSQKFQGRVTITADESTSTAYMELSSLRSEDTAVYYCAGSDGISTPMDVWGQGTLVTVSS VL: not shown | 26.3 | 0.0166 | 631000 | – |
| COVID19_P21_C09 (scFv, V domains shown) VH: QVQLVQSGAEVKKPGSSVKVSCKASGYGFISYWIGWVRQAPGQGLEWMGIIYPGDSETRYSQKFQGRVTITADESTSTAYMELSSLRSEDTAVYYCAGGSGILEPMDVWGQGTLVTVSS VL: not shown | 28.5 | 0.0157 | 551000 | – |
| COVID19_P21_E07 (scFv, V domains shown) VH: QVQLVQSGAEVKKPGSSVKVSCKASGYGFITYWIGWVRQAPGQGLEWMGIIYPGDSETRYSQKFQGRVTITADESTSTAYMELSSLRSEDTAVYYCAGGSGISTPMDVWGQGTLVTVSS VL: not shown | 41 | 0.0155 | 378000 | – |
| COVID19_P21_E08 (scFv, V domains shown) VH: QVQLVQSGAEVKKPGSSVKVSCKASGYGFITYWIGWVRQAPGQGLEWMGIIYPGDGETRYSQKFQGRVTITADESTSTAYMELSSLRSEDTAVYYCAGGSGISTPMDVWGQGTLVTVSS VL: not shown | 32.8 | 0.0142 | 434000 | – |
| COVID19_P21_H02 (scFv, V domains shown) VH: QVQLVQSGAEVKKPGSSVKVSCKASGYGFITYWIGWVRQAPGQGLEWMGIIYPGDSETRYAQKFQGRVTITADESTSTAYMELSSLRSEDTAVYYCAGGSGLYTPMDVWGQGTLVTVSS VL: not shown | 40.3 | 0.0124 | 308000 | – |
| COVID19_P22_D06 (scFv, V domains shown) VH: QVQLVQSGAEVKKPGSSVKVSCKASGGGFITYWIGWVRQAPGQGLEWMGIIYPGDSETRYSQKFQGRVTITADESTSTAYMELSSLRSEDTAVYYCAGGSGVLTPMDVWGQGTLVTVSS VL: not shown | 30.5 | 0.012 | 410000 | – |
| COVID19_P22_E10 (scFv, V domains shown) VH: QVQLVQSGAEVKKPGSSVKVSCKASGGGFITYWIGWVRQAPGQGLEWMGIIYPGDGETRYSQKFQGRVTITADESTSTAYMELSSLRSEDTAVYYCAGGSGISTPMDVWGQGTLVTVSS VL: not shown | 25.3 | 0.0058 | 230000 | – |
| COVID19_P22_F11 (scFv, V domains shown) VH: QVQLVQSGAEVKKPGSSVKVSCKASGGGFITYWISWVRQAPGQGLEWMGIIYPGDGEARYSQKFQGRVTITADESTSTAYMELSSLRSEDTAVYYCAGGSGIIQPMDVWGQGTLVTVSS VL: not shown | 23.3 | 0.0093 | 400000 | binding result [2]: no binding (tested: up to 300 nM); binding result [3]: no binding (tested: up to 300 nM) |
| COVID19_P21_B12 (scFv, V domains shown) VH: QVQLVQSGAEVKKPGSSVKVSCKASGGTFSSYAISWVRQAPGQGLEWMGMINPGGGNTNYAEKFQGRVTITADESTSTAYMELSSLRSEDTAVYYCAGEWGISTPMDVWGQGTLVTVSS VL: not shown | 37.6 | 0.0104 | 276000 | – |
| COVID19_P21_A04 (scFv, V domains shown) VH: QVQLVQSGAEVKKPGSSVKVSCKASGYGFITYWIGWVRQAPGQGLEWMGIIYPGDSETRYSQKFQGRVTITADESTSTAYMELSSLRSEDTAVYYCAGGSGLLTPMDVWGQGTLVTVSS VL: not shown | 35 | 0.0143 | 409000 | – |
| COVID19_P10_B08 (scFv, V domains shown) VH: QVQLVQSGAEVKKPGSSVKVSCKASGGGFITYWIGWVRQAPGQGLEWMGWINPNSGGTKYAQKFQGRVTITADESTSTAYMELSSLRSEDTAVYYCAGGSGISTPIDVWGQGTLVTVSS VL: not shown | 41.3 | 0.0217 | 527000 | – |
| COVID19_P10_B10 (scFv, V domains shown) VH: QVQLVQSGAEVKKPGSSVKVSCKASGYSFSDYHVHWVRQAPGQGLEWVGMIIPRHGGTAYAQKFQGRVTITADESTSTAYMELSSLRSEDTAVYYCAGGSGISTPMDVWGQGTLVTVSS VL: not shown | 46.2 | 0.014 | 302000 | binding result [4]: no binding (tested: up to 300 nM); binding result [5]: no binding (tested: up to 300 nM) |
| COVID19_P09_G12 (scFv, V domains shown) VH: QVQLVQSGAEVKKPGSSVKVSCKASGYPFTNYGISWVRQAPGQGLEWMGWMNPNSGNTGYAQKFQGRVTITADESTSTAYMELSSLRSEDTAVYYCATLSGISTPMDVWGQGTLVTVSS VL: not shown | 0.4 | 0.000363 | 828000 | binding result [6]: no binding (tested: up to 300 nM); binding result [7]: no binding (tested: up to 300 nM) |
| COVID19_P09_B09 (scFv, V domains shown) VH: QVQLVQSGAEVKKPGSSVKVSCKASGYRFTDYHLHWVRQAPGQGLEWMGGIVPFSGTTNFAQKFQGRVTITADESTSTAYMELSSLRSEDTAVYYCAGGSGETTPMDVWGQGTLVTVSS VL: not shown | 22.9 | 0.000507 | 22100 | binding result [8]: no binding (tested: up to 300 nM); binding result [9]: no binding (tested: up to 300 nM) |
| COVID19_P09_G05 (scFv, V domains shown) VH: QVQLVQSGAEVKKPGSSVKVSCKASGYTFTGHYMHWVRQAPGQGLEWMGIIYPGDSEARYSQKFQGRVTITADESTSTAYMELSSLRSEDTAVYYCAGGSGISTPMDVWGQGTLVTVSS VL: not shown | 11.3 | 0.000482 | 42600 | – |
| COVID19_P21_F02 (scFv, V domains shown) VH: QVQLVQSGAEVKKPGSSVKVSCKASGYTFTSYGISWVRQAPGQGLEWMGIIYPGDGTTRYSQKFQGRVTITADESTSTAYMELSSLRSEDTAVYYCLPGSGISTPMDVWGQGTLVTVSS VL: not shown | 26.8 | 0.000679 | 25400 | – |
| COVID19_P21_A03 (scFv, V domains shown) VH: QVQLVQSGAEVKKPGSSVKVSCKASGGTFSNNGLSWVRQAPGQGLEWMGGIIPIFGTANYAQKFQGRVTITADESTSTAYMELSSLRSEDTAVYYCRMGSGISTPMDVWGQGTLVTVSS VL: not shown | 20.6 | 0.000858 | 41700 | – |
